Test results as given in patent publication US20240262899A1.

Experiments:
[1] = molecular target: citrullinated histone H3 (CitH3) peptide (human); assay: sandwich ELISA, Ab coated 1 ug/mL, CitH3 at 1000 pg/mL
[2] = molecular target: citrullinated histone H3 (CitH3) peptide (human); assay: sandwich ELISA, Ab coated 1 ug/mL, CitH3 at 50 pg/mL
[3] = molecular target: citrullinated histone H3 (CitH3) peptide (human); assay: sandwich ELISA, Ab coated 1 ug/mL, CitH3 at 0 pg/mL (blank)
[4] = molecular target: citrullinated histone H3 (CitH3) peptide (human); assay: sandwich ELISA, Ab coated 1 ug/mL, CitH3 at 20000 pg/mL

- ELISA signal (raw data) [1]: 2910
- ELISA signal (raw data) [2]: 2950
- ELISA signal (raw data) [3]: 2780
- ELISA signal (raw data) [4]: 3700
B1: Y1128-VH1/VL1 (antibody, V domains shown)
VH: EVQLVQSGAEVKKPGATVKISCKASGFNIKDYYMHWMQQRPGKGLEWIGWIDPENGNTIYDPKFQGRVTITSDTSTDTAYLELSSLRSEDTAVYYCAPFGNYVWFAYWGQGTLVTVSS
VL: DVVMTQSPLSLPVTLGQPASISCRSSQSIVHSNGITYLEWFQQRPGQSPRLLIYKVSNRFSGVPDRFSGSGSGTDFTLKISRVEAEDVGVYYCFQGSHVPFTFGQGTKLEIKR
